Like-named read-outs stand apart in the source and are kept apart here.
Legend:
[1] = biological target: TDP-43 C-terminal domain (TDP-43CTD) (267-414) (UniProt Q13148); assay: co-sedimentation
[2] = biological target: TDP-43 C-terminal domain (TDP-43CTD) (267-414) (UniProt Q13148); assay: co-sedimentation; remark: listed apart in the source

UniProt Q13148, sequence (Q13148 267-414): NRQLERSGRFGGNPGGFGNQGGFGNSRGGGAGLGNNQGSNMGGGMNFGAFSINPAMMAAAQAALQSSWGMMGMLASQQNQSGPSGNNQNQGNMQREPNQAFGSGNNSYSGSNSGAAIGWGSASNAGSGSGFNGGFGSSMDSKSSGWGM

| Substance | stoichiometry N (GRN per TDP-43CTD) [1] | stoichiometry N (GRN per TDP-43CTD) [2] |
| --- | --- | --- |
| GRN-5 (granulin-5, oxidized) (domain or fragment) | 0.75 | 0.73 |
| rGRN-5 (granulin-5, fully reduced) (domain or fragment) | 1.1 | – |
